# Read-outs that look alike come from different tables or passages of the source.
# B1: kinase domain of wildtype chicken c-Src, residues 251-533 (domain or fragment, UniProt P00523 251-533, looked up)
# chain: QTQGLAKDAWEIPRESLRLEVKLGQGCFGEVWMGTWNGTTRVAIKTLKPGTMSPEAFLQEAQVMKKLRHEKLVQLYAVVSEEPIYIVTEYMSKGSLLDFLKGEMGKYLRLPQLVDMAAQIASGMAYVERMNYVHRDLRAANILVGENLVCKVADFGLARLIEDNEYTARQGAKFPIKWTAPEAALYGRFTIKSDVWSFGILLTELTTKGRVPYPGMVNREVLDQVERGYRMPCPPECPESLHDLMCQCWRKDPEERPTFEYLQAFLEDYFTSTEPQYQPGENL
# Legend:
# Test in all cases: SPR
# [1] = target: B1
# [2] = target: T1, full-length Csk (C-terminal Src Kinase), residues 1-450 (UniProt P41240 1-450)
# [3] = target: T2, Csk construct lacking the SH3 domain (SH2 and kinase domains), residues 68-450 (UniProt P41240 68-450)
# [4] = target: T1, full-length Csk (C-terminal Src …); remark: listed apart in the source
# [5] = target: T2, Csk construct lacking the SH3 domain …; remark: listed apart in the source
Kd [1] [µM],Kd [2] [µM],Kd [3] [µM],Kd [4] [µM],Kd [5] [µM],Binder
~70,,,,,"kinase domain of Csk, residues 187-450 (domain or fragment, UniProt P41240 187-450, looked up) GWALNMKELKLLQTIGKGEFGDVMLGDYRGNKVAVKCIKNDATAQAFLAEASVMTQLRHSNLVQLLGVIVEEKGGLYIVTEYMAKGSLVDYLRSRGRSVLGGDCLLKFSLDVCEAMEYLEGNNFVHRDLAARNVLVSEDNVAKVSDFGLTKEASSTQDTGKLPVKWTAPEALREKKFSTKSDVWSFGILLWEIYSFGRVPYPRIPLKDVVPRVEKGYKMDAPDGCPPAVYEVMKNCWHLDAAMRPSFLQLREQLEHIKTHELHL"
,~4,~4,~30,~30,B1

# — PMC2494536 (Cell, 2008)
